Experimental data taken from patent publication US20210347873A1 (SHANGHAI PHARMAEXPLORER, published 2021).

How the values were obtained:
mouse BLyS protein = mouse BLyS protein (mouse, UniProt Q9WU72 69-309); assay: cell-based or functional assay
[1] = target: T1, human BLyS (full length, arginine to histidine at position 132) on CHO-K1 cells (human, UniProt Q9Y275 1-285); assay: flow cytometry, CHO-K1 hBLyS cells, antibody 0 nM
T1 construct: also called hBLyS; CHO-K1 hBLyS
Experimental: (§1) The medium was aspirated completely, and the cells were rinsed once with PBS buffer (purchased from Invitrogen) and then treated with cell dispersion solution (TrypLE™ Express Enzyme, purchased from Life technology) and collected. The detailed steps are as follows: the cells were rinsed once with PBS buffer, after counting, the cells were diluted to 2×10⁶ cells/ml with PBS buffer, blocked with 2% (w/w) fetal bovine serum and incubated on ice for 30 minutes. 200 μL of which per well was aliquoted into a 96-well FACS plate and centrifuged at 2000 rpm at 4° C., then each 100 μL of the lead antibodies obtained from Embodiment 1 and 2 were aliquoted into each well and incubated on ice for 1 hour. […] After centrifuged and rinsed 3 times with FACS buffer, cells were suspended with 200 μL of FACS buffer and the results were detected and analyzed by FACS (FACS Calibur, purchased from BD). It was shown in Tables 12-13 that the lead antibody could bind to human BLyS protein on the cell surface and the lead antibody could cross-react with cynomolgus BLyS. The data in the table is MFI, the average fluorescence intensity of the cell population.

[2] = target: T1, human BLyS (full length, arginine to …); assay: flow cytometry, CHO-K1 hBLyS cells, antibody 13.3 nM
Experimental: as §1

[3] = target: T1, human BLyS (full length, arginine to …); assay: flow cytometry, CHO-K1 hBLyS cells, antibody 2.67 nM
Experimental: as §1

[4] = target: T1, human BLyS (full length, arginine to …); assay: flow cytometry, CHO-K1 hBLyS cells, antibody 66.7 nM
Experimental: as §1

[5] = target: T2, cynomolgus BLyS (full length, arginine to histidine at position 132) on CHO-K1 cells (cynomolgus, UniProt Q9Y275 1-285 (human entry)); assay: flow cytometry, CHO-K1 cynoBLyS cells, antibody 0 nM
T2 construct: also called cyno BLyS; CHO-K1 cynoBLyS
T2 chain: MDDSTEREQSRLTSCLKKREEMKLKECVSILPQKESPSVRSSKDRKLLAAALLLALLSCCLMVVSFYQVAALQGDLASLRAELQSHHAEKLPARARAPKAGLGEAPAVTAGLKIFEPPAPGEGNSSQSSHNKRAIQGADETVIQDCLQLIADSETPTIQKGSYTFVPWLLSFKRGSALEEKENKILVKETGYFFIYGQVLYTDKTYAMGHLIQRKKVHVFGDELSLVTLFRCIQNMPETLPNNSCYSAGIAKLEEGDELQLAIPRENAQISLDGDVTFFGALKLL
Experimental: as §1

[6] = target: T1, human BLyS (full length, arginine to …); assay: flow cytometry, CHO-K1 hBLyS cells, antibody 0.107 nM
Experimental: as §1

[7] = target: T1, human BLyS (full length, arginine to …); assay: flow cytometry, CHO-K1 hBLyS cells, antibody 0.534 nM
Experimental: as §1

[8] = target: T1, human BLyS (full length, arginine to …); assay: flow cytometry, CHO-K1 hBLyS cells, antibody 0.0213 nM
Experimental: as §1

[9] = target: T1, human BLyS (full length, arginine to …); assay: flow cytometry, CHO-K1 hBLyS cells, antibody 0.00427 nM
Experimental: as §1

[10] = target: T2, cynomolgus BLyS (full length, arginine …); assay: flow cytometry, CHO-K1 cynoBLyS cells, antibody 13.3 nM
Experimental: as §1

[11] = target: T2, cynomolgus BLyS (full length, arginine …); assay: flow cytometry, CHO-K1 cynoBLyS cells, antibody 2.67 nM
Experimental: as §1

[12] = target: T2, cynomolgus BLyS (full length, arginine …); assay: flow cytometry, CHO-K1 cynoBLyS cells, antibody 66.7 nM
Experimental: as §1

[13] = target: T2, cynomolgus BLyS (full length, arginine …); assay: flow cytometry, CHO-K1 cynoBLyS cells, antibody 0.107 nM
Experimental: as §1

[14] = target: T2, cynomolgus BLyS (full length, arginine …); assay: flow cytometry, CHO-K1 cynoBLyS cells, antibody 0.534 nM
Experimental: as §1

[15] = target: T2, cynomolgus BLyS (full length, arginine …); assay: flow cytometry, CHO-K1 cynoBLyS cells, antibody 0.0213 nM
Experimental: as §1

[16] = target: T2, cynomolgus BLyS (full length, arginine …); assay: flow cytometry, CHO-K1 cynoBLyS cells, antibody 0.00427 nM
Experimental: as §1

T1 sequence (Q9Y275 whole entry R130H): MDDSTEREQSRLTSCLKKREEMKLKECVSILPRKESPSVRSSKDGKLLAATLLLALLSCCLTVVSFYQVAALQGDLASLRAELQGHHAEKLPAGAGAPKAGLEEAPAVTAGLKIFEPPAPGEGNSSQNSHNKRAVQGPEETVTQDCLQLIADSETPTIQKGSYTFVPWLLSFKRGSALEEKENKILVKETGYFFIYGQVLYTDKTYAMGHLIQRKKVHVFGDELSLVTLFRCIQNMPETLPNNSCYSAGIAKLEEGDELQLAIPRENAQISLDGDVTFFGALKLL
Sequence of mouse BLyS protein (Q9WU72 69-309): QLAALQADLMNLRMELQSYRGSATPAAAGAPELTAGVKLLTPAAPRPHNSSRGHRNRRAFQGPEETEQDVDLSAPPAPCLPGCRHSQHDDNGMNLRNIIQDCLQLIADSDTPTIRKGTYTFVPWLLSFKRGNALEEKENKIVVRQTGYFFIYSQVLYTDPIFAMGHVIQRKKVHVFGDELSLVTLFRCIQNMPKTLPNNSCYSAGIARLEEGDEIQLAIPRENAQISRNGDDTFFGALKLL

mouse B lymphocyte proliferation (OD450 nm), antibody 0 nM (mouse BLyS protein) [OD450 nm] | mouse B lymphocyte proliferation (OD450 nm), antibody 0.000256 nM (mouse BLyS protein) [OD450 nm] | mouse B lymphocyte proliferation (OD450 nm), antibody 0.00128 nM (mouse BLyS protein) [OD450 nm] | mouse B lymphocyte proliferation (OD450 nm), antibody 0.0064 nM (mouse BLyS protein) [OD450 nm] | mouse B lymphocyte proliferation (OD450 nm), antibody 0.032 nM (mouse BLyS protein) [OD450 nm] | mouse B lymphocyte proliferation (OD450 nm), antibody 0.16 nM (mouse BLyS protein) [OD450 nm] | mouse B lymphocyte proliferation (OD450 nm), antibody 0.8 nM (mouse BLyS protein) [OD450 nm] | mouse B lymphocyte proliferation (OD450 nm), antibody 4 nM (mouse BLyS protein) [OD450 nm] | mouse B lymphocyte proliferation (OD450 nm), antibody 20 nM (mouse BLyS protein) [OD450 nm] | mouse B lymphocyte proliferation (OD450 nm), antibody 100 nM (mouse BLyS protein) [OD450 nm] | MFI [1] [MFI] | MFI [2] [MFI] | MFI [3] [MFI] | MFI [4] [MFI] | MFI [5] [MFI] | MFI [6] [MFI] | MFI [7] [MFI] | MFI [8] [MFI] | MFI [9] [MFI] | MFI [10] [MFI] | other results | Binder
2160 | 2160 | 2340 | 2520 | 2430 | 2410 | 2530 | 2520 | 2560 | 2490 | 52.4 | 528 | 437 | 609 | 20.3 | 110 | 247 | 54.9 | 39.2 | 1080 | MFI [11]: 953 MFI; MFI [12]: 1130 MFI; MFI [13]: 177 MFI; MFI [14]: 501 MFI; MFI [15]: 66.3 MFI; MFI [16]: 32.6 MFI | 35E6F7C3 (antibody, V domains shown, Mouse hybridoma monoclonal antibody purified on Protein G) VH: EVQLQQSGAELVKPGASVKLSCTAAGFNIQDTYIHWVKQRPEQGLEWIGRIDPANANTVYDPKFQGKATITADTSSNTAYLQVSSLTSEDTAVYYCASPVITAGFAYWGQGTLVTVSA VL: QIVLTQSPAIMSASPGEKVTMTCGASSSVNYVHWYQQKSGTSPKRWIYDTSKLASGVPARFSGSGSGTSYSLTISSMEAEDAATYYCQQWTRSPLTFGAGTKVELK
2260 | 2090 | 2170 | 2180 | 2380 | 2120 | 2480 | 2200 | 2240 | 1920 | 31.8 | 498 | 474 | 535 | 19.8 | 194 | 402 | 83.6 | 46.8 | 978 | MFI [11]: 933 MFI; MFI [12]: 1030 MFI; MFI [13]: 349 MFI; MFI [14]: 808 MFI; MFI [15]: 118 MFI; MFI [16]: 50.4 MFI | 20D1B6E9E5 (antibody, V domains shown, Mouse hybridoma monoclonal antibody purified on Protein G) VH: EVQLQQSVAELVRPGASVKLSCTASDFNIKNTYIHWVKQRPEQGLEWIGRIDPVNGNTKYAPKFQDKATIIVDTYSNTAYLQLSSLASEDTAVYYCARWPITTIVATDWYFDVWGTGTTVTVSS VL: DVLMTQTQLALPVRLGEQASISCRSSQSIVNSNGNTYLEWYLQKPGQSPKLLIYKVSNRFSGVPDRFSGSGSGTDFTLKISRVEAEDLGVYYCFQGSHVPWTFGGGTKLEIK
2120 | 2390 | 2200 | 2110 | 2260 | 2330 | 2490 | 2410 | 2240 | 2070 | 31.2 | 371 | 279 | 432 | 20.3 | 60 | 129 | 37.1 | 33.2 | 738 | MFI [11]: 518 MFI; MFI [12]: 842 MFI; MFI [13]: 76.6 MFI; MFI [14]: 213 MFI; MFI [15]: 35.3 MFI; MFI [16]: 24.7 MFI | 67A2E1D10 (antibody, V domains shown, Mouse hybridoma monoclonal antibody purified on Protein G) VH: EVQLQQSGAELVKPGASVKLSCTASGFNIKNYYMHWVKQRTEEGLEWIGRIDPEDGETKYAPKFQAKATITADTSSNTAYLQLSSLTSEDTAVYFCARKGYYGNYGAWFAYWGQGTLVTVSA VL: DIQMTQSPASLSVSVGETVTITCRASEDLYSNLAWYQQKQGKSPQLLVYAATFLADGVPSRFSGSGSGTQYSLKINSLQSEDFGNYYCQHFWGTPPTFGGGTKLEIK
1990 | 2210 | 2380 | 2240 | 2390 | 2410 | 2510 | 2340 | 2470 | 2480 | 31.2 | 336 | 300 | 356 | 20.2 | 132 | 249 | 61.3 | 39.5 | 636 | MFI [11]: 594 MFI; MFI [12]: 664 MFI; MFI [13]: 235 MFI; MFI [14]: 480 MFI; MFI [15]: 106 MFI; MFI [16]: 37.7 MFI | 78C11D2D12 (antibody, V domains shown, Mouse hybridoma monoclonal antibody purified on Protein G) VH: QVQLQQSGAELVRPGTSVKISCKASGYAFTNYWLGWVKQRPGHGLEWIGDIYPGSGNTYYNEKFKGKATLTADKSSSTAYMQLSSLTSEDSAVFFCAAYLYAMDYWGQGTSVTVSS VL: QIVLTQSPAIMSASPGEKVTITCSASSSVSYMHWFQQKPGTSPKLWIYSASNLASGVPARFSGSGSGTSYSLTISRMEAEDAATYYCQQRGSYPFTFGSGTKLEIK
